Reference: article doi:10.1101/2024.10.12.618001

Assay: SEC

In the case of “CD95L-IZ-His (His8-TEV-Cys-IZ-CD95L (137-281), secreted form)”, the “percent trimers in solution (Gaussian fit of the SEC curve)” value is reported as “occurs in a trimeric state (i.e. 62%)”.
